Test results from US20110256132A1 (published 2011).
* marks the point of attachment. Biotin = O=C1N[C@H]2[C@H](CS[C@H]2CCCCC(=O)*)N1

Assays:
[1] = target: T1, mature myostatin (recombinant, dimeric) (mouse polyprotein used for in-house …, UniProt O08689 268-376); assay: FORTEbio bio-layer interferometry, myostatin amine-coupled to sensor, 20 nM antibody, 1:1 fit
T1 construct: also called GDF-8; recombinant myostatin
T1 sequence: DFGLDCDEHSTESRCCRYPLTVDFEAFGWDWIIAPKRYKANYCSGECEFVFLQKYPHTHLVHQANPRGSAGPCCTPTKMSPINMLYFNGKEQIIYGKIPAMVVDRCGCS
Experimental: The affinity of 10B3 mouse parental and H2L2-C91S developability variant for recombinant myostatin was also assessed by FORTEbio™ (bio-layer inferometry) analysis. FORTEbio™ analyses were carried out by antigen capture. Myostatin (in-house, see above at 1.1) was coupled onto amine reactive biosensors by primary amine coupling in accordance with the manufacturer's instructions. Antibodies were then captured onto this surface at 20 nM concentrations. The data was analysed using the evaluation software inherent in the machine and the data analysed using 1:1 fit (see Table 16). Due to the limited number of myostatin molecules bound to the sensor surface and the low antibody concentration, avidity effects are reduced, enabling a more accurate measure of affinity compared to the Biacore analyses. […] However, due to the nature of the binding of the antibodies to myostatin, these values are mainly used for ranking purposes, and the affinity may not be representative of the affinity in vivo.

[2] = target: T2, artificial myostatin linear peptide 19 (cysteine pairing not given here); assay: SRU BIND reader, peptides captured on streptavidin biosensor plate
T2 construct: also called Peptide No 19
T2 peptide: Biotin-SGSGRYKANYCSGECEFV-NH2
Experimental: (§1) Work was carried out on an SRU BIND reader (SRU Biosystems). A streptavidin biosensor plate was washed, a baseline reading taken, and biotinylated peptides captured onto the streptavidin coated biosensor plate. The plate was washed again, and a new baseline reading taken, antibody was then added and binding monitored.

[3] = target: T3, artificial myostatin linear peptide 1 (not fully specified); assay: as above
T3 construct: also called Peptide No 1
T3 peptide: H-DFGLDCDEHSTESRGSG-NH2
Experimental: as §1

[4] = target: T4, artificial myostatin linear peptide 35 (cysteine pairing not given here); assay: as above
T4 construct: also called Peptide No 35
T4 peptide: Biotin-SGSGSAGPCCTPTKMSPI-NH2
Experimental: as §1

[5] = target: T5, artificial myostatin linear peptide 33 (cysteine pairing not given here); assay: as above
T5 construct: also called Peptide No 33
T5 peptide: Biotin-SGSGNPRGSAGPCCTPTK-NH2
Experimental: as §1

[6] = target: T6, artificial myostatin linear peptide 41 (SMILES …); assay: as above
T6 construct: also called Peptide No 41
T6 peptide: Biotin-SGSGPINMLYFNGKEQII-NH2
Experimental: as §1

[7] = target: T7, artificial myostatin linear peptide 47 (SMILES …); assay: as above
T7 construct: also called Peptide No 47
T7 peptide: Biotin-SGSGIIYGKIPAMVVDRC-NH2
Experimental: as §1

[8] = target: T8, artificial myostatin linear peptide 9 (SMILES …); assay: as above
T8 construct: also called Peptide No 9
T8 peptide: Biotin-SGSGRYPLTVDFEAFGWD-NH2
Experimental: as §1

[9] = target: T9, artificial myostatin linear peptide 45 (SMILES …); assay: as above
T9 construct: also called Peptide No 45
T9 peptide: Biotin-SGSGGKEQIIYGKIPAMV-NH2
Experimental: as §1

[10] = target: T10, artificial myostatin linear peptide 17 (SMILES …); assay: as above
T10 construct: also called Peptide No 17
T10 peptide: Biotin-SGSGIAPKRYKANYCSGE-NH2
Experimental: as §1

[11] = target: T11, artificial myostatin linear peptide 13 (SMILES …); assay: as above
T11 construct: also called Peptide No 13
T11 peptide: Biotin-SGSGEAFGWDWIIAPKRY-NH2
Experimental: as §1

[12] = target: T12, artificial myostatin linear peptide 39 (SMILES …); assay: as above
T12 construct: also called Peptide No 39
T12 peptide: Biotin-SGSGTKMSPINMLYFNGK-NH2
Experimental: as §1

[13] = target: T13, artificial myostatin linear peptide 11 (SMILES …); assay: as above
T13 construct: also called Peptide No 11
T13 peptide: Biotin-SGSGTVDFEAFGWDWIIA-NH2
Experimental: as §1

[14] = target: T14, artificial myostatin linear peptide 37 (cysteine pairing not given here); assay: as above
T14 construct: also called Peptide No 37
T14 peptide: Biotin-SGSGCCTPTKMSPINMLY-NH2
Experimental: as §1

[15] = target: T15, artificial myostatin linear peptide 25 (SMILES …); assay: as above
T15 construct: also called Peptide No 25
T15 peptide: Biotin-SGSGFVFLQKYPHTHLVH-NH2
Experimental: as §1

[16] = target: T16, artificial myostatin linear peptide 23 (SMILES …); assay: as above
T16 construct: also called Peptide No 23
T16 peptide: Biotin-SGSGGECEFVFLQKYPHT-NH2
Experimental: as §1

[17] = target: T17, artificial myostatin linear peptide 21 (cysteine pairing not given here); assay: as above
T17 construct: also called Peptide No 21
T17 peptide: Biotin-SGSGNYCSGECEFVFLQK-NH2
Experimental: as §1

[18] = target: T18, artificial myostatin linear peptide 49 (cysteine pairing not given here); assay: as above
T18 construct: also called Peptide No 49
T18 peptide: Biotin-SGSGGKIPAMVVDRCGCS-OH
Experimental: as §1

[19] = target: T19, artificial myostatin linear peptide 29 (SMILES …); assay: as above
T19 construct: also called Peptide No 29
T19 peptide: Biotin-SGSGHTHLVHQANPRGSA-NH2
Experimental: as §1

[20] = target: T20, artificial myostatin linear peptide 27 (SMILES …); assay: as above
T20 construct: also called Peptide No 27
T20 peptide: Biotin-SGSGQKYPHTHLVHQANP-NH2
Experimental: as §1

[21] = target: T21, artificial myostatin linear peptide 3 (cysteine pairing not given here); assay: as above
T21 construct: also called Peptide No 3
T21 peptide: Biotin-SGSGDCDEHSTESRCCRY-NH2
Experimental: as §1

[22] = target: T22, artificial myostatin linear peptide 7 (cysteine pairing not given here); assay: as above
T22 construct: also called Peptide No 7
T22 peptide: Biotin-SGSGSRCCRYPLTVDFEA-NH2
Experimental: as §1

[23] = target: T23, artificial myostatin linear peptide 43 (SMILES …); assay: as above
T23 construct: also called Peptide No 43
T23 peptide: Biotin-SGSGLYFNGKEQIIYGKI-NH2
Experimental: as §1

[24] = target: T24, artificial myostatin linear peptide 31 (cysteine pairing not given here); assay: as above
T24 construct: also called Peptide No 31
T24 peptide: Biotin-SGSGVHQANPRGSAGPCC-NH2
Experimental: as §1

[25] = target: T25, artificial myostatin linear peptide 15 (SMILES …); assay: as above
T25 construct: also called Peptide No 15
T25 peptide: Biotin-SGSGWDWIIAPKRYKANY-NH2
Experimental: as §1

B1: mouse monoclonal antibody 10B3 (antibody, V domains shown)
VH: EVQLQQSGPELVKPGASVKISCKASGYSFTGYFMHWVKQSHGNILDWIGNIYPYNGVSNYNQRFKAKATLTVDKSSSTAYMELRSLTSEDSAVYYCARRYYYGTGPADWYFDVWGTGTTVTVSS
VL: DIKMTQSPSSMYASLRERVTITCKASQDINSYLSWFQQKPGKSPKTLIYRANRLVDGVPSRFSGSGSGQDYSLTISSLEYEDMGIYYCLQCDEFPLTFGAGTKLELK
notes: Mouse IgG2a/kappa from hybridoma; also called 10B3 mouse parental; 10B3 parental
Kd [1]: 310 pM
koff [1]: 0.000131 s⁻¹
kon [1]: 424000 M⁻¹ s⁻¹
binding result [2]: no binding
binding result [3]: no binding
binding result [4]: no binding
binding result [5]: no binding
binding result [6]: no binding
binding result [7]: no binding
binding result [8]: no binding
binding result [9]: no binding
binding result [10]: no binding
binding result [11]: no binding
binding result [12]: no binding
binding result [13]: no binding
binding result [14]: no binding
binding result [15]: no binding
binding result [16]: no binding
binding result [17]: no binding
binding result [18]: no binding
binding result [19]: no binding
binding result [20]: no binding
binding result [21]: no binding
binding result [22]: no binding
binding result [23]: no binding
binding result [24]: no binding
binding result [25]: no binding
